In the DeepSol protein solubility set:

Assay: soluble on expression in E. coli; label from the status in PepcDB or PDB records

Sequence | soluble on expression in E. coli
MAEQRFCVDYAKRGTAGCKKCKEKIVKGVCRIGKVVPNPFSESGGDMKEWYHIKCMFEKLERARATTKKIEDLTELEGWEELEDNEKEQITQHIADLSSKAAGTPKKKAVVQAKLTT | soluble
MAERAALEELVKLQGERVRGLKQQKASAELIEEEVAKLLKLKAQLGPDESKQKFVLKTPKGTRDYSPRQMAVREKVFDVIIRCFKRHGAEVIDTPVFELKETLMGKYGEDSKLIYDLKDQGGELLSLRYDLTVPFARYLAMNKLTNIKRYHIAKVYRRDNPAMTRGRYREFYQCDFDIAGNFDPMIPDAECLKIMCEILSSLQIGDFLVKVNDRRILDGMFAICGVSDSKFRTICSSVDKLDKVSWEEVKNEMVGEKGLAPEVADRIGDYVQQHGGVSLVEQLLQDPKLSQNKQALEGLGDLKLLFEYLTLFGIDDKISFDLSLARGLDYYTGVIYEAVLLQTPAQAGEEPLGVGSVAAGGRYDGLVGMFDPKGRKVPCVGLSIGVERIFSIVEQRLEALEEKIRTTETQVLVASAQKKLLEERLKLVSELWDAGIKAELLYKKNPKLLNQLQYCEEAGIPLVAIIGEQELKDGVIKLRSVTSREEVDVRREDLVEEIKRRTGQPLCIC | soluble
MAETNKGIEEEVASAFVNHYYHLFDNDRSSLSSLYNPTSLLTFEGQTIYGVDNISNKLKQLPFDQCHHLISTVDSQPSSMAGGCGGILVFVSGSIQLHGEDHPLRFSQVYLLSICNRFEGFIWLKQS | not soluble
MAETVESSLAKSHIEGSFTNVWKDDKTLDWYANYEGILWKATGVVVITGDETQVYAIWVPVGLAIPENEGGGSEGGGSEGGGSEGGGTKPPEYGDTPIPGYIYINPLDGTYPPGTEQNPANPNPSLEESHPLNTFMFQGNRFRNRQGALTVYTGTVTQGTDPVKTYYQYTPVSSKAMYDAYWNGKFRDVAFHSGFNEDPLVAEYQGQLSYLPQPPVNAPSGHHHHHH | soluble
MAFEGLADRLQQTMQKIRGKGKVSEADVKEMMREVRLALLEADVNFKVVKDFVKRVSERAVGQDVMKSLTPGQQVIKVVQEELTELMGGEQSKIAIANKPPTVIMMVGLQGAGKTTTTGKLANLLRKKHNRKPMLVAADIYRPAAIKQLETLGKQLDMPVFSLGDQVSPVEIAKQAIAKAKEDHHDYVLIDTAGHLHIDEELMDELAKVKEVAKPDEIFLVVDAMTGQDAVNVAQSFHEQLGLTGVVLTKLDGDTRGGAALSIKAVTNTPIKFAGMGEKLDALEAFHPERMASRILGMGDVLTLIEKAQATVDEEKAKELEQKMRTLSFTLDDFLEQLGQVRQLGPLDELLGMLPGANKIKGLKNAQVDEKQIGHIEAIIRSMTKLEREQPEIINASRKKRIAKGSGTTVQEINRLIKQFDDMKKMMKTMTGMQKGKKKGLGGLKFPFM | not soluble
MAFIGRDDDLKQLQECFTERRAQLVFVYGRRRVGKTETLIQLAKDKETLFFAAQNATKDEQLASFSRLMFEAGAPGKDYLSQYPSWERALTELTRLPEPSDGGRRLVIFDEFPYLVKSDPSLPSVLQNLWDHTLRHANLMIVICGSAMSFIEKELLGEKSPLYGRATGILKMLPMPYWDAAQFFPNYSGEDKALAYAILGGIPRYLEEFDPDETIDANVKRHILRRIAPLYSEVEFLLHEELRETAKYNSVIRAIALGATSLNEIATHTMMANATVSSYLANLMELGIVEREFPVTAKPKERAKGSRGLYQLSDNFFRFWYSFVFPYRSELERGDVEGVYERHIKPVLHDFAGKPFEGLCREWMWRESAAGRLPFRARAVGRWWDRQDEIDVMAVDNASDAAIVGECKFRNAPVDRSVLNLLRDRAARTGIGQRTYLLFSLGGFDQSLVDDAAASQSDVQLVGIDELFHELEHHHHHH | not soluble
MAGAGMYGDCSLAATLSYGAVLEPYLHPKPGGVTPYASEGGKSFGDFVLHATLSSRLLAWACLKAWKNGPIGVIASVKERYLREVVPRFKGNIAYGTFMLMAPLAVAIALSKSSEPEELVTTARDTIYCCTGRRESLLHYKILRRLSPSHLGRYRGELPDVASGGERDIPPYPLLLKLNSWDMVHRELAKGYPITLEAYRHSLNRVKEGRSVEEALLEALLKVLAEHGDTLIFQKYGGRAFKMAREEARVAFHVSERWGVRHAITWLERLWRGREWNPGAALDIVAVASGLLLITISRDASS | not soluble
MAGDPMIRKPAVAGYFYPSNRNELLSLISSFHVQQSEVSCQPIGVVVPHAGIVYSGRTAMYSYNALRNSSIRDFIIIGPNHRPMTPYASIFPSGSWETPLGNAIINEELASELYKNSQYIVKDEESHSVEHSIEVQIPFLQYMFGNSFTFVPVILGDQEKVVANDIASALMRLSKPYILIASSDFTHYERSDIVERKDMDLISRIVDLDIDGFYDTIERENVTACGYGAIAILMIIAKKIGAKISLLNHSNSGDVTNDYDEVVGYSSIVACRQILEHHHHHH | not soluble
MAGDPMKSPCILLIIVCTLSLTGCASTKQADSDSSLGKAQQTLDSLYQHYSAKDSYLLRENYPFNEQYKVTYLASENQTNMPNQFSYLWPYSGTFSAVNSLLEATHDKKYQQLLEKQVLPGLEEYFDTERTPIAYSSYIRTAPTSDRFYDDNIWVGIDFIDIYQITKEKKYLDKAQLIWNFIESGTDSLLGDGIYWCEQKKESKNTCSNAPGSVFALKLFKATNDSLYFKRGKELYKWTQKNLQDSTDYLYFDNIRLDGKIGKAKFAYNSGQMMQSAALLYQLTKNPDYLKDAQSIAKECYNYFFTDFTTDTGESLKMLKQGNIWFTAVMLRGFIELYQLDQNKTFIDAFNQCLSYAWDNARDENGLFSTDLTGNNNNEKKWLLTQAAMVEMYSRLATIQLEHHHHHH | soluble
MAGDPMNDVSKASLPKAIFLMGPTASGKTALAIELRKVLPVELISVDSALIYRGMDIGTAKPNADELKAAPHRLLDIRDPSQAYSAADFRRDALAQMAEITAAGRIPLLVGGTMLYFKALLEGLSPLPSADPEVRSRIEQQAAELGWEALHQQLQEIDPVAAARIHPNDPQRLSRALEVFFISGKTLTELTQTSGDALPYQVHQFAIAPASRELLHQRIELRFHQMLASGFEAEVRALFARGDLHTDLPSIRCVGYRQMWSYIEGEISYDEMVYRGVCATRQLAKRQMTWLRGWEGVRWLDSENPDRARKEVLQVVGAIADLEHHHHHH | soluble
MAGDPMNVEGMATGGIHMELHCPQCQHVLDQDNGHARCRSCGEFIEMKALCPDCHQPLQVLKACGAVDYFCQHGHGLISKKRVEFVLALEHHHHHH | not soluble
MAGETDLQKILRESNDQFTAQMFSEVVKANPGQNVVLSAFSVLPPLGQLALASVGESHDELLRALALPNDNVTKDVFADLNRGVRAVKGVDLKMASKIYVAKGLELNDDFAAVSRDVFGSEVQNVDFVKSVEAAGAINKWVEDQTNNRIKNLVDPDALDETTRSVLVNAIYFKGSWKDKFVKERTMDRDFHVSKDKTIKVPTMIGKKDVRYADVPELDAKMIEMSYEGDQASMIIILPNQVDGITALEQKLKDPKALSRAEERLYNTEVEITLPKFKIETTTDLKEVLSNMNIKKLFTPGAARLENLLKTKESLTVDAAIQKAFIEVNEEGAEAAAANAFGIVPKSLILYPEVHIDRPFYFELKIDGIPMFNGKVIEP | soluble
MAGFAVNLKVVLNSDAVFGTACKRGGGAPETCLLEDMGLEREDIEPFGYEKDKDREILVWHTKTSTPNIVKSNKNSTKKAPPPDTFGYFVEA | not soluble
MAGLKYEDAGVNIEAGNQAVERMKQHVKKTFTQDVLTGLGSFGSLYSLKNIINNYDDPVLVQSIDGVGTKTKVAVMCGKFENLGYDLFSAATNDIVVMGAKPITFLDYVAHDKLDPAIMEELVKGMSKACAECGVSLVGGETAEMPGVYQAGEIDMVGVITGIVDRKRIINGENIKEGDIVFGLSSSGLHTNGYSFARKLFFDVAGNKHTDTYPELEGKTIGDVLLEPHINYTNIIHDFLDNGVDIKGMAHITGGGFIENIPRVLPQGLGAQIDKDSFATPAIFKLMQRIGDISEFEMYRSFNMGIGMTIIASQDQFDKMQELAKKHTNTKLYQIGKITNSGKVEII | soluble
MAGNSIGQFFRVTTFGESHGIALGCIIDGVPPGIPITEADIQLDLDRRRPGTSRYTTQRRELDQVRILSGVFEGVTTGTSIGLMIENTDQRSQDYSAIKDVFRPGHADYTYEQKYGVRDYRGGGRSSARETAMRVAAGAIAKKYLAQKFGVQVRGYLAQMGDVSCDLLDWDLVEQNPFFCPDASKLEPLDALMRELKKAGDSIGAKITVVAENVPVGLGEPVFDRLDADLAHALMSINAVKGVEIGDGFAVVTKRGSENRDEITPQGFQSNHAGGILGGISSGQPVVAHIALKPTSSIMVPGQTINRQGEAVEMVTRGRHDPCVGIRAVPIAEAMMAIVLMDHLLRQRAQCGDVASDVPRW | not soluble
